Experimental data as given in the supplement of paper PMC11246515.
± gives the standard deviation of the averaged measurements.

Experiment: total protein half-life in vivo (active degradation + dilution); higher = more stable protein
[1] = E. coli NCM3722 delta-clpP delta-lon delta-hslV, growth: N-lim chemostat, doubling time 6 h
[2] = wild type E. coli NCM3722, growth: C-lim chemostat, doubling time 3 h
[3] = E. coli NCM3722 delta-clpP, growth: N-lim chemostat, doubling time 6 h
[4] = wild type E. coli NCM3722, growth: N-lim chemostat, doubling time 12 h
[5] = E. coli NCM3722 delta-hslV, growth: N-lim chemostat, doubling time 6 h
[6] = E. coli NCM3722 delta-lon, growth: N-lim chemostat, doubling time 6 h
[7] = wild type E. coli NCM3722, growth: C-lim chemostat, doubling time 6 h
[8] = wild type E. coli NCM3722, growth: C-lim chemostat, doubling time 12 h
[9] = wild type E. coli NCM3722, growth: N-lim chemostat, doubling time 6 h
[10] = wild type E. coli NCM3722, growth: P-lim chemostat, doubling time 6 h
[11] = wild type E. coli NCM3722, growth: P-lim chemostat, doubling time 12 h
[12] = E. coli NCM3722 delta-smpB, growth: N-lim chemostat, doubling time 6 h

Row | Sequence | total protein half-life in vivo [1] [h] | total protein half-life in vivo [2] [h] | total protein half-life in vivo [3] [h] | total protein half-life in vivo [4] [h] | total protein half-life in vivo [5] [h] | total protein half-life in vivo [6] [h] | total protein half-life in vivo [7] [h] | total protein half-life in vivo [8] [h] | total protein half-life in vivo [9] [h] | total protein half-life in vivo [10] [h] | total protein half-life in vivo [11] [h] | total protein half-life in vivo [12] [h]
1 | MDLSLLKALSEADAIASSEQEVRQILLEEADRLQKEVRFDGLGSVLIRLNESTGPKVMICAHMDEVGFMVRSISREGAIDVLPVGNVRMAARQLQPVRITTREECKIPGLLDGDRQGNDVSAMRVDIGARSYDEVMQAGIRPGDRVTFDTTFQVLPHQRVMGKAFDDRLGCYLLVTLLRELHDAELPAEVWLVASSSEEVGLRGGQTATRAVSPDVAIVLDTACWAKNFDYGAANHRQIGNGPMLVLSDKSLIAPPKLTAWVETVAAEIGVPLQADMFSNGGTDGGAVHLTGTGVPTVVMGPATRHGHCAASIADCRDILQMQQLLSALIQRLTRETVVQLTDFR | 5.79 | 2.18 | – | – | – | – | – | – | – | – | – | –
2 | MSKVRLAIIGNGMVGHRFIEDLLDKSDAANFDITVFCEEPRIAYDRVHLSSYFSHHTAEELSLVREGFYEKHGIKVLVGERAITINRQEKVIHSSAGRTVFYDKLIMATGSYPWIPPIKGSDTQDCFVYRTIEDLNAIESCARRSKRGAVVGGGLLGLEAAGALKNLGIETHVIEFAPMLMAEQLDQMGGEQLRRKIESMGVRVHTSKNTLEIVQEGVEARKTMRFADGSELEVDFIVFSTGIRPRDKLATQCGLDVAPRGGIVINDSCQTSDPDIYAIGECASWNNRVFGLVAPGYKMAQVAVDHILGSENAFEGADLSAKLKLLGVDVGGIGDAHGRTPGARSYVYLDESKEIYKRLIVSEDNKTLLGAVLVGDTSDYGNLLQLVLNAIELPENPDSLILPAHSGSGKPSIGVDKLPDSAQICSCFDVTKGDLIAAINKGCHTVAALKAETKAGTGCGGCIPLVTQVLNAELAKQGIEVNNNLCEHFAYSRQELFHLIRVEGIKTFEELLAKHGKGYGCEVCKPTVGSLLASCWNEYILKPEHTPLQDSNDNFLANIQKDGTYSVIPRSPGGEITPEGLMAVGRIAREFNLYTKITGSQRLAMFGAQKDDLPEIWRQLIEAGFETGHAYAKALRMAKTCVGSTWCRYGVGDSVGLGVELENRYKGIRTPHKMKFGVSGCTRECSEAQGKDVGIIATEKGWNLYVCGNGGMKPRHADLLAADIDRETLIKYLDRFMMFYIRTADKLTRTAPWLENLEGGIDYLKAVIIDDKLGLNAHLEEEMARLREAVLCEWTETVNTPSAQTRFKHFINSDKRDPNVQMVPEREQHRPATPYERIPVTLVEDNA | 6.11 | – | 5.71 | 6.72 | – | – | – | – | – | – | – | –
3 | MLAISSNLSKMIIFIFAIIIIVVLCVITYLYLYKDESLVSKHYINYMAIPENDGVFTWLPDFFPHVAVDISIYTNVEDDYFFLIFP | 3.41 | – | – | – | 5.43 | – | – | – | – | – | – | –
4 | MSRPTIIINDLDAERIDILLEQPAYAGLPIADALNAELDRAQMCSPEEMPHDVVTMNSRVKFRNLSDGEVRVRTLVYPAKMTDSNTQLSVMAPVGAALLGLRVGDSIHWELPGGVATHLEVLELEYQPEAAGDYLL [P0AFW4] | 4.22 ± 0.14 | 1.02 ± 0.099 | – | – | – | 1.49 | 1.55 ± 0.086 | 2.08 ± 0.0038 | 1.43 ± 0.68 | 1.36 | 2.53 | –
5 | MHLSTHPTSYPTRYQEIAAKLEQELRQHYRCGDYLPAEQQLAARFEVNRHTLRRAIDQLVEKGWVQRRQGVGVLVLMRPFDYPLNAQARFSQNLLDQGSHPTSEKLLSVLRPASGHVADALGITEGENVIHLRTLRRVNGVALCLIDHYFADLTLWPTLQRFDSGSLHDFLREQTGIALRRSQTRISARRAQAKECQRLEIPNMSPLLCVRTLNHRDGESSPAEYSVSLTRADMIEFTMEH | – | – | – | – | – | – | 6.73 | – | – | 0.458 ± 0.023 | 1.54 ± 0.86 | –
6 | MKRLQAFKFQLRPGGQQECEMRRFAGACRFVFNRALARQNENHEAGNKYIPYGKMASWLVEWKNATETQWLKDSPSQPLQQSLKDLERAYKNFFRKRAAFPRFKKRGQNDAFRYPQGVKLDQENSRIFLPKLGWMRYRNSRQVTGVVKNVTVSQSCGKWYISIQTESEVSTPVHPSASMVGLDAGVAKLATLSDGTVFEPVNSFQKNQKKLARLQRQLSRKVKFSNNWQKQKRKIQRLHSCIANIRRDYLHKVTTAVSKNHAMIVIEDLKVSNMSKSAAGTVSQPGRNVRAKSGLNRSILDQGWYEMRRQLAYKQLWRGGQVLAVPPAYTSQRCAYCGHTAKENRLSQSKFRCQVCGYTANADVNGARNILAAGHAVLACGEMVQSGRPLKQEPTEMIQATA | 5.63 | – | – | – | – | 3.54 | 6.1 ± 0.35 | 10.6 | – | – | > 16 | –
7 | MMNPVLWLQMTNMISYQGLVRTFLNKNDLKAFIAFPSSLYPDDPNWIPPLFIERNEHLSAKNPGTDHIIWQAWVAKKAGQIVGRITAQIDTLHRERYGKDTGHFGMIDAIDDPQVFAALFGAAEAWLKSQGASKISGPFSLNINQESGLLIEGFDTPPCAMMPHGKPWYAAHIEQLGYHKGIDLLAWWMQRTDLTFSPALKKLMDQVRKKVTIRCINRQRFAEEMQILREIFNSGWQHNWGFVPFTEHEFATMGDQLKYLVPDDMIYIAEIDSAPCAFIVGLPNINEAIADLNGSLFPFGWAKLLWRLKVSGVRTARVPLMGVRDEYQFSRIGPVIALLLIEALRDPFARRKIDALEMSWILETNTGMNNMLERIGAEPYKRYRLYEKQI | – | – | – | – | 2.23 | – | – | – | – | – | – | 3.38
8 | MIYIGLPQWSHPKWVRLGITSLEEYARHFNCVEGNTTLYALPKPEVVLRWREQTTDDFRFCFKFPATISHQAALRHCDDLVTEFLTRMSPLAPRIGQYWLQLPATFGPRELPALWHFLDSLPGEFNYGVEVRHPQFFAKGEEEQTLNRGLHQRGVNRVILDSRPVHAARPHSEAIRDAQRKKPKVPVHAVLTATNPLIRFIGSDDMTQNRELFQVWLQKLAQWHQTTTPYLFLHTPDIAQAPELVHTLWEDLRKTLPEIGAVPAIPQQSSLF | 4.97 ± 2.1 | – | 3.55 ± 0.26 | 5.52 | 2.76 ± 0.11 | 3.25 ± 0.55 | 4.28 | 8.14 ± 0.79 | 3.16 ± 0.033 | 5.33 ± 0.11 | 11.5 ± 0.46 | 2.97 ± 0.13
